In PMC2802452:

Biological target: HLA-A2-mCFP (human)
Assay: FRET or BRET

B1: Bap31-mYFP-KKEE (natural protein)
chain: MSLQWTAVATFLYAEVFVVLLLCIPFISPKRWQKIFKSRLVELLVSYGNTFFVVLIVILVLLVIDAVREIRKYDDVTEKVNLQNNPGAMEHFHMKLFRAQRNLYIAGFSLLLSFLLRRLVTLISQQATLLASNEAFKKQAESASEAAKKYMEENDQLKKGAAVDGGKLDVGNAEVKLEEENRSLKADLQKLKDELASTKQKLEKAENQVLAMRKQSEGLTKEYDRLLEEHAKLQAAVDGPMDKKEE
FRET efficiency at A:D of 1: 5% | fold FRET at A:D 1:1 after feeding Tax peptide, against controls: 2 fold
